Measurements from PMC9177983.

Target: reconstituted elongation complex (EC): His-tagged E. coli RNAP core complex on template DNA, non-template DNA and RNA transcript (E. coli)

NusG, sequence (P0AFG0 whole entry): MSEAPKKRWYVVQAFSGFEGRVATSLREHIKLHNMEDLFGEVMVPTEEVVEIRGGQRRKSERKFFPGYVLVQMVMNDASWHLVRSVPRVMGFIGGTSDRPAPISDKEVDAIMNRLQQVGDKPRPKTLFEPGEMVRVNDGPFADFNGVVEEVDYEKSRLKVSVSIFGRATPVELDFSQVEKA

NusG (from UniProt P0AFG0 1-181) (natural protein)
smFRET of surface-immobilised ECs with 500 nM NusG, no nucleotide: percentage of dynamic ECs in the high-mid and high-low FRET regimes (23% for EC alone): 33%
